Tests used:
[1] = molecular target: T1, 20-mer peptide substrate GEIIGGTECKPHSRPYMAYL (SEQ ID NO: 1)
T1 chain: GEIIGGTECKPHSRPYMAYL

[2] = molecular target: T2, Dipeptide substrate Gly-Arg labeled with alpha-methylcoumarin (AMC)
T2 chain: GR

B1: Dipeptidyl peptidase I (DPPI) (protein)
chain 1: not shown
chain 2: LPTSWDWRNVHGINFVSPVRNQASCGSCYSFASMGMLEARIRILTNNSQTPILSPQEVVSCSQYAQGCEGGFPYLIAGKYAQDFGLVEEACFPYTGTDSPCKMKEDCFRYYSSEYHYVGGFYGGCNEALMKLELVHHGPMAVAFEVYDDFLHYKKGIYHHTGLR
chain 3: not shown
For B1, the KM [1] was 62 µM, the Kcat [1] was “about 62 µM, 1.15 sec^-1, and 1.95×10^4 M^-1sec^-1, respectively” and the kcat (Mmin^-1) [1] was 69 min⁻¹. The KM [2] was 64 µM and the kcat (Mmin^-1) [2] was 5670 min⁻¹.
